Data published in PMC6478609.

Molecular target: TRPM8FA with the Ala805→Gly mutation (TRPM8_(FA_AG)) (collared flycatcher Ficedula albicollis) (UniProt U3JD03)
Assay: cryo-EM structure

“TRPM8FA with the Ala805→Gly mutation (TRPM8_(FA_AG)) (from UniProt U3JD03 1-1115) (natural protein)” was tested, and the stoichiometry N was 4.
